The values that follow are results of earlier work, collected in publication PMC9523730.

For orientation: pKd means −log10 of the Kd, conventionally taken in molar units.

pKd: −log10 of the molar value.

The series deals with 14-3-3ζ (Homo sapiens) (UniProt P63104). In words: various biophysical approaches.

Turning to 14-3-3ζ (from UniProt P63104), the pKd is 8.30.
